Biological target: T1, LRRC15 on U-87 MG (LRRC15+) cells (human, UniProt Q8TF66 22-581)
T1 construct: Endogenous LRRC15 of U-87 MG cells (ATCC HTB-14); also called cell surface LRRC15
T1 sequence: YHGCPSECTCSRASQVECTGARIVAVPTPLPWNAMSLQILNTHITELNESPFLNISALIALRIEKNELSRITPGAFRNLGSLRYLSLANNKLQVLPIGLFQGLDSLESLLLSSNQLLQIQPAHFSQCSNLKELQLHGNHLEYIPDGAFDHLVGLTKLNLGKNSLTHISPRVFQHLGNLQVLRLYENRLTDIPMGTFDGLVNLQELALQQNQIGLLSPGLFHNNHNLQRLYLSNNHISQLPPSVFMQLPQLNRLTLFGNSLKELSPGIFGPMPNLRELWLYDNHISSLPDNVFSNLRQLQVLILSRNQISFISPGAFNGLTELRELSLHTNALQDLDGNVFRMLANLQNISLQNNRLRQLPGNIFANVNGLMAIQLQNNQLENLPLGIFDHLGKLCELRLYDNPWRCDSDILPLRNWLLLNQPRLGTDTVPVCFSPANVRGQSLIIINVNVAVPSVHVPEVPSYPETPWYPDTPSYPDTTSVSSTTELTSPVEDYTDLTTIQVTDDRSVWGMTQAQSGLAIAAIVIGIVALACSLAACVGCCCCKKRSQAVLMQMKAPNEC
Assay: flow cytometry on U-87 MG (LRRC15+) cells, 60 nM to 1 pM
Experimental: FIGS. 40a-40b: Characterization of binding affinity for anti-LRRC15 mAbs. Anti-LRRC15 mAbs were assayed for their binding to U-87 MG (LRRC15+) cells.
Binding affinity of selected LRRC15 pH engineered antibody variants from Example 9 were measured on U-87 MG (LRRC15+) cells. 100,000 U-87 MG cells (ATCC HTB-14) were seeded per well in a 96 well deep well plate. Samrotamab and a pH engineered antibody variant were serially diluted at a 1:3 dilution in ice cold FC buffer (phosphate buffered saline (PBS), pH 7.4+2 mM ethylenediaminetetraacetic acid (EDTA)+2% (v/v) HI FBS). The plates were spun at 2,000 RPM for 2 minutes, the supernatant was removed, and 100 μL of diluted antibody was added to each well with final concentration ranging from 60 nM to 1 pM and incubated for 2 hours at 4° C. Post incubation, the cells were spun at 2000 rpm for 2 min and supernatant was discarded. Cells were washed twice with 500 μL of ice-cold FC buffer and resuspended with 100 μL of FC buffer. […] Post incubation, cells were washed with FC buffer and resuspended in 100 μL of FC buffer to read on a BD Accuri C6 flow cytometer. Binding affinity was measured as a dissociation constant KD by GraphPad Prism assuming Michaelis-Menten binding kinetics.

Row | Binder | IC50 [nM]
1 | samrotamab (antibody, V domains shown, IgG; the entries called heavy and light chain hold the variable domains only; also called MYT0963) VH: EVQLVQSGAEVKKPGASVKVSCKASGYKFSSYWIEWVKQAPGQGLEWIGEILPGSDTTNYNEKFKDRATFTSDTSINTAYMELSRLRSDDTAVYYCARDRGNYRAWFGYWGQGTLVTVSS VL: DIQMTQSPSSLSASVGDRVTITCRASQDISNYLNWYQQKPGGAVKFLIYYTSRLHSGVPSRFSGSGSGTDYTLTISSLQPEDFATYFCQQGEALPWTFGGGTKVEIK | 0.228
2 | MYT0971 (antibody, V domains shown, IgG) VH: EVQLVQSGAEVKKPGASVKVSCKASGYKFSSYHIEWVKQAPGQGLEWIGEILPGSDTTNYNEKFKDRATFTSDTSINTAYMELSRLRSDDTAVYYCARDRGNYRAWFGYWGQGTLVTVSS VL: DIQMTQSPSSLSASVGDRVTITCRASQDISNYLNWYQQKPGGAVKFLIYYTSRLHSGVPSRFSGSGSGTDYTLTISSLQPEDFATYFCQQGEALPWTFGGGTKVEIK | 0.484
